According to patent publication US20150148405A1, “Expression Construct for a Lin28-Resistant Let-7 Precursor MicroRNA” (THE JOHNS HOPKINS UNIVERSITY, priority 2012, published 2015):

System: Let-7 miRNA binding sites
Test: Let-7 luciferase reporter assay
Assay type: cell-based, mouse
Settings: BDNF 4 hr, transcription blockade; control reporters unchanged
Text: Let-7 luciferase reporters (gift of G. Hannon) harbor a wildtype or a mutant Let-7 miRNA binding site. The Let-7 miRNA binding sites are derived from a short 3′UTR segment of C. elegans Lin41 mRNA containing two adjacent proven Let-7 miRNA biding sites and are cloned into 3′UTR of firefly luciferase in a pcDNA backbone. Mutations in seed regions of both Let-7 binding sites were made for a negative control reporter, which was documented not regulated by endogenous Let-7 miRNAs. Co-transfection of the pCSK-lacZ vector, which constitutively expresses β-galactosidase and is not regulated by shRNA, served to normalize transfection efficiency and extract recovery for each sample in all reporter assays. The DNA amounts used for each well (24 well plate) were 15 ng of any luciferase reporter, 85 ng of β-gal (CSK-LacZ), and/or 75-300 ng of CXCR4 shRNA. Each reporter experiment included extracts from cells transfected with pcDNA3.1 alone as a reference control. […] Cell lysates were collected in 1×lysis buffer (reporter lysis buffer, Promega), and luciferase (Promega) and chemiluminescent β-gal (Roche) reporter assays carried out according to manufacturer instructions using a plate-reading luminometer (Perkin Elmer). […] When required, fold change was calculated by dividing normalized stimulated samples by normalized unstimulated samples.

B1: BDNF: brain-derived neurotrophic factor, a neurotrophin used to stimulate hippocampal neurons (protein, UniProt P23560 19-247, looked up)
Neurotrophic factor BDNF …: APMKEANIRGQGGLAYPGVRTHGTLESVNGPKAGSRGLTSLADTFEHVIEELLDEDQKVRPNEENNKDADLYTSRVMLSSQVPLEPPLLFLLEEYKNYLDAANMSMRVRRHSDPARRGELSVCDSISEWVTAADKKTAVDMSGGTVTVLEKVPVSKGQLKQYFYETKCNPMGYTKEGCRGIDKRHWNSQCRTTQSYVRALTMDSKKRIGWRFIRIDTSCVCTLTIKRGR
luciferase reporter containing Let-7 binding sites: significantly induced
